Data as given in patent publication US20210371498A1, “MHC CLASS I COMPOSITIONS AND METHODS” (priority 2020, published 2021).
Like-named read-outs stand apart in the source and are kept apart here.

Assays:
[1] = biological target: T1, HLA-A*02:01 (Homo sapiens, UniProt P04439, D140Y/D185E/D98H/E176V/E277Q/G131W/G231S/I119V/I121R/I166T/I218V/L300P/L318F/N151K/N90K/P208A/P217A/Q86G/Q94H/R138H/R169H/T345S); assay type: binding
T1 construct: Plasmid DNA encoding the BirA tagged luminal domain of MHC-I heavy chains HLA-A*02:01; made in house; Drosophila S2 cells (TAPBPR); gTAX synthetic (Genscript)

[2] = biological target: T2, gTAX/HLA-A*02:01 (Homo sapiens, UniProt P04439, D140Y/D185E/D98H/E176V/E277Q/G131W/G231S/I119V/I121R/I166T/I218V/L300P/L318F/N151K/N90K/P208A/P217A/Q86G/Q94H/R138H/R169H/T345S); assay: Native gel electrophoresis of TAPBPR-catalysed peptide exchange on gTAX/HLA-A*02:01 (Example 1); assay type: biochemical; details: overnight incubation, 10-fold molar excess of peptide, with TAPBPR
T2 construct: Plasmid DNA encoding the luminal domain of class I MHC (MHC-I) heavy chain HLA-A*02:01; made in house; Drosophila S2 cells (TAPBPR); gTAX synthetic (Genscript)

[3] = biological target: T1, HLA-A*02:01; assay type: binding; details: p*MHC-I/gTAX incubated with peptide and TAPBPR, 12% native gel
[4] = p/HLA-A*02:01 prepared by TAPBPR-mediated peptide exchange, 10-fold molar excess of peptide, overnight 4° C., DSF first derivative, ± SD of 3 replicates

Row | Sequence | Tm [1, 4] [°C] | other results
1 | ALNTLVKQL [Peptide 1] | 48.3 ± 0.6 | –
2 | ALNTPKDHI [Peptide 26] | 44.4 ± 0.6 | –
3 | GLIAIVMVTI [Peptide 23] | 40.4 ± 0.6 | –
4 | GLMWLSYFI [Peptide 6] | 41.4 ± 7.9 | –
5 | GMSRIGMEV [Peptide 8] | 48.3 ± 0.0 | –
6 | IITTDNTFV [Peptide 24] | 42.4 ± 0.6 | –
7 | ILLLDQALV [Peptide 10] | 52.3 ± 0.0 | –
8 | ILLNKHIDA [Peptide 16] | 43.4 ± 0.0 | –
9 | KLPDDFTGCV [Peptide 13] | 53.3 ± 0.0 | –
10 | LALLLLDRL [Peptide 27] | 43.3 ± 1.5 | –
11 | LITGRLQSL [Peptide 29] | 44.4 ± 0.6 | –
12 | LLLDRLNQL [Peptide 7] | 54.3 ± 0.6 | –
13 | LLLLDRLNQL [Peptide 22] | 42.4 ± 0.6 | –
14 | LLLQYGSFC [Peptide 31] | 47.3 ± 0.6 | –
15 | LQLPQGTTL [Peptide 28] | 44.4 ± 1.1 | –
16 | NLNESLIDL [Peptide 4] | 47.3 ± 0.6 | –
17 | RLNEVAKNL [Peptide 3] | 46.3 ± 0.6 | –
18 | SIIAYTMSL [Peptide 14] | 53.3 ± 0.6 | –
19 | SLPGVFCGV [Peptide 11] | 59.3 ± 0.0 | –
20 | SMWALIISV [Peptide 25] | 52.3 ± 0.6 | –
21 | TLACFVLAAV [Peptide 12] | – | Tm [1]: 53.3 ± 0.6 °C
22 | TLMNVLTLV [Peptide 15] | – | Tm [1]: 61.2 ± 0.6 °C
23 | TTLPKGFYA [Peptide 32] | 46.3 ± 0.6 | –
24 | VLNDILSRL [Peptide 2] | 50.3 ± 0.0 | –
25 | VLQLPQGTTL [Peptide 21] | 39.4 ± 0.0 | –
26 | VVFLHVTYV [Peptide 17] | – | Tm [1]: 52.3 ± 0.0 °C
27 | WLMWLIINL [Peptide 9] | 42.4 ± 4.0 | –
28 | YPNVNIHNF [non-specific peptide, non-specific gp29 peptide used as a negative control] | – | peptide exchange on gTAX/HLA-A*02:01 (native gel) [2]: no exchange was observed; band of exchanged pMHC-I on native gel [3]: no condensed band
